Values of other authors as cited in article PMC10215522.

Biological target: TFPI2 (Homo sapiens) (UniProt P48307)
Sequence of UniProt P48307 (P48307 23-235): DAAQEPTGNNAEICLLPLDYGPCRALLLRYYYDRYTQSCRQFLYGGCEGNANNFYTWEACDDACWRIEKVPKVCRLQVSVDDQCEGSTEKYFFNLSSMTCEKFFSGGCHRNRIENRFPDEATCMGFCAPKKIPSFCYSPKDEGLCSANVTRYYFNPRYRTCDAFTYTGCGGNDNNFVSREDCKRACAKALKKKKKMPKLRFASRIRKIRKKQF

Kd: 70 nM
Substance: gC1qR (from UniProt Q07021)
